Biological target: Human RhoG (residues 1-188) with N-terminal His-SUMO tag, pre-loaded with GDP, P84095
Sequence (P84095 1-188): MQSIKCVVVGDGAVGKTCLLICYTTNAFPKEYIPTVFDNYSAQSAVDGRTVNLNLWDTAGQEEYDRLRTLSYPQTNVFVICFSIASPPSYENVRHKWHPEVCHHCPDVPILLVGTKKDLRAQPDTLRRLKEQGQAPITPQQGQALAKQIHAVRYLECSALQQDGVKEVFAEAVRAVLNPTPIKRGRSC

B1: Human full-length ARHGEF26 (wild-type) with N-terminal His-SUMO tag (protein)
chain: MDGESEVDFSSNSITPLWRRRSIPQPHQVLGRSKPRPQSYQSPNGLLITDFPVEDGGTLLAAQIPAQVPTASDSRTVHRSPLLLGAQRRAVANGGTASPEYRAASPRLRRPKSPKLPKAVPGGSPKSPANGAVTLPAPPPPPVLRPPRTPNAPAPCTPEEDLTGLTASPVPSPTANGLAANNDSPGSGSQSGRKAKDPERGLFPGPQKSSSEQKLPLQRLPSQENELLENPSVVLSTNSPAALKVGKQQIIPKSLASEIKISKSNNQNVEPHKRLLKVRSMVEGLGGPLGHAGEESEVDNDVDSPGSLRRGLRSTSYRRAVVSGFDFDSPTSSKKKNRMSQPVLKVVMEDKEKFSSLGRIKKKMLKGQGTFDGEENAVLYQNYKEKALDIDSDEESEPKEQKSDEKIVIHHKPLRSTWSQLSAVKRKGLSQTVSQEERKRQEAIFEVISSEHSYLLSLEILIRMFKNSKELSDTMTKTERHHLFSNITDVCEASKKFFIELEARHQNNIFIDDISDIVEKHTASTFDPYVKYCTNEVYQQRTLQKLLATNPSFKEVLSRIESHEDCRNLPMISFLILPMQRVTRLPLLMDTICQKTPKDSPKYEVCKRALKEVSKLVRLCNEGARKMERTEMMYTINSQLEFKIKPFPLVSSSRWLVKRGELTAYVEDTVLFSRRTSKQQVYFFLFNDVLIITKKKSEESYNVNDYSLRDQLLVESCDNEELNSSPGKNSSTMLYSRQSSASHLFTLTVLSNHANEKVEMLLGAETQSERARWITALGHSSGKPPADRTSLTQVEIVRSFTAKQPDELSLQVADVVLIYQRVSDGWYEGERLRDGERGWFPMECAKEITCQATIDKNVERMGRLLGLETNV
With B1 the “nucleotide exchange activity (GTP-GDP nucleotide exchange assay, MANT-GTP fluorescence, 60 minutes)” value was “we observed no significant difference in nucleotide exchange activity between wild-type and 29Leu mutant ARHGEF26”.

B2: Human full-length ARHGEF26 29Leu mutant (p.Val29Leu) with N-terminal His-SUMO tag (protein)
chain: MDGESEVDFSSNSITPLWRRRSIPQPHQLLGRSKPRPQSYQSPNGLLITDFPVEDGGTLLAAQIPAQVPTASDSRTVHRSPLLLGAQRRAVANGGTASPEYRAASPRLRRPKSPKLPKAVPGGSPKSPANGAVTLPAPPPPPVLRPPRTPNAPAPCTPEEDLTGLTASPVPSPTANGLAANNDSPGSGSQSGRKAKDPERGLFPGPQKSSSEQKLPLQRLPSQENELLENPSVVLSTNSPAALKVGKQQIIPKSLASEIKISKSNNQNVEPHKRLLKVRSMVEGLGGPLGHAGEESEVDNDVDSPGSLRRGLRSTSYRRAVVSGFDFDSPTSSKKKNRMSQPVLKVVMEDKEKFSSLGRIKKKMLKGQGTFDGEENAVLYQNYKEKALDIDSDEESEPKEQKSDEKIVIHHKPLRSTWSQLSAVKRKGLSQTVSQEERKRQEAIFEVISSEHSYLLSLEILIRMFKNSKELSDTMTKTERHHLFSNITDVCEASKKFFIELEARHQNNIFIDDISDIVEKHTASTFDPYVKYCTNEVYQQRTLQKLLATNPSFKEVLSRIESHEDCRNLPMISFLILPMQRVTRLPLLMDTICQKTPKDSPKYEVCKRALKEVSKLVRLCNEGARKMERTEMMYTINSQLEFKIKPFPLVSSSRWLVKRGELTAYVEDTVLFSRRTSKQQVYFFLFNDVLIITKKKSEESYNVNDYSLRDQLLVESCDNEELNSSPGKNSSTMLYSRQSSASHLFTLTVLSNHANEKVEMLLGAETQSERARWITALGHSSGKPPADRTSLTQVEIVRSFTAKQPDELSLQVADVVLIYQRVSDGWYEGERLRDGERGWFPMECAKEITCQATIDKNVERMGRLLGLETNV
B2 was tested, and the “nucleotide exchange activity (GTP-GDP nucleotide exchange assay, MANT-GTP fluorescence, 60 minutes)” value was “we observed no significant difference in nucleotide exchange activity between wild-type and 29Leu mutant ARHGEF26”.

Source: patent US20190345557
